Reference: patent US20050106655A1

Columns and labels:
[1] = molecular target: PKA (protein kinase A) catalytic unit, Promega; experiment: cell-based or functional assay
[2] = tested on: T1, Lissamine rhodamine-labeled peptide substrate (Dye-RPKPVE-Norvaline-WRKpSA)
T1 sequence: RPKPVEXWRKSA

[3] = molecular target: T2, Lissamine rhodamine-labeled peptide substrate (Dye-QQQEVYGMMPRDpSA)
T2 chain: QQQEVYGMMPRDSA

In the case of “PKI, a known synthetic peptide inhibitor of PKA”, the IC50 of inhibition of PKA activity (phosphorylation of Lissamine Rhodamine-labeled Kemptide, Fe(III) fluorescence quench assay) [1] is reported as 2.6 nM.

“Recombinant MMP-3 catalytic subunit (Matrix Metalloproteinase 3), Calbiochem” was tested, and the “Km (protease assay, fluorescence quench)” value [2] was “Km was 1.44±0.15 µM”.

B1: Calpain 1 from human erythrocytes, Calbiochem (protein)
chain 1: SEEIITPVYCTGVSAQVQKQRARELGLGRHENAIKYLGQDYEQLRVRCLQSGTLFRDEAFPPVPQSLGYKDLGPNSSKTYGIKWKRPTELLSNPQFIVDGATRTDICQGALGDCWLLAAIASLTLNDTLLHRVVPHGQSFQNGYAGIFHFQLWQFGEWVDVVVDDLLPIKDGKLVFVHSAEGNEFWSALLEKAYAKVNGSYEALSGGSTSEGFEDFTGGVTEWYELRKAPSDLYQIILKALERGSLLGCSIDISSVLDMEAITFKKLVKGHAYSVTGAKQVNYRGQVVSLIRMRNPWGEVEWTGAWSDSSSEWNNVDPYERDQLRVKMEDGEFWMSFRDFMREFTRLEICNLTPDALKSRTIRKWNTTLYEGTWRRGSTAGGCRNYPATFWVNPQFKIRLDETDDPDDYGDRESGCSFVLALMQKHRRRERRFGRDMETIGFAVYEVPPELVGQPAVHLKRDFFLANASRARSEQFINLREVSTRFRLPPGEYVVVPSTFEPNKEGDFVLRFFSEKSAGTVELDDQIQANLPDEQVLSEEEIDENFKALFRQLAGEDMEISVKELRTILNRIISKHKDLRTKGFSLESCRSMVNLMDRDGNGKLGLVEFNILWNRIRNYLSIFRKFDLDKSGSMSAYEMRMAIESAGFKLNKKLYELIITRYSEPDLAVDFDNFVCCLVRLETMFRFFKTLDTDLDGVVTFDLFKWLQLTMFA
chain 2: MFLVNSFLKGGGGGGGGGGGLGGGLGNVLGGLISGAGGGGGGGGGGGGGGGGGGGGTAMRILGGVISAISEAAAQYNPEPPPPRTHYSNIEANESEEVRQFRRLFAQLAGDDMEVSATELMNILNKVVTRHPDLKTDGFGIDTCRSMVAVMDSDTTGKLGFEEFKYLWNNIKRWQAIYKQFDTDRSGTICSSELPGAFEAAGFHLNEHLYNMIIRRYSDESGNMDFDNFISCLVRLDAMFRAFKSLDKDGTGQIQVNIQEWLQLTMYS
For B1, the “Km (protease assay, fluorescence quench)” value [3] was “Km was 0.17±0.01 µM”.
